{"source": "paper PMC5679670", "about": "“The helicase DinG responds to stress due to DNA double strand breaks” (PLoS ONE, 2017)", "key": {"[1]": {"biological_target": "T1, DinGNm (Neisseria meningitidis, UniProt Q9K181)", "T1 construct": "gene dinG; full-length gene amplified from MC58 genomic DNA, C-terminal 6xHis tag (pET-28b(+), pSB13), E. coli NiCo21(DE3); Ni-NTA and Resource Q; iron-containing (4 Fe per protein)", "T1 sequence (Q9K181 1-716)": "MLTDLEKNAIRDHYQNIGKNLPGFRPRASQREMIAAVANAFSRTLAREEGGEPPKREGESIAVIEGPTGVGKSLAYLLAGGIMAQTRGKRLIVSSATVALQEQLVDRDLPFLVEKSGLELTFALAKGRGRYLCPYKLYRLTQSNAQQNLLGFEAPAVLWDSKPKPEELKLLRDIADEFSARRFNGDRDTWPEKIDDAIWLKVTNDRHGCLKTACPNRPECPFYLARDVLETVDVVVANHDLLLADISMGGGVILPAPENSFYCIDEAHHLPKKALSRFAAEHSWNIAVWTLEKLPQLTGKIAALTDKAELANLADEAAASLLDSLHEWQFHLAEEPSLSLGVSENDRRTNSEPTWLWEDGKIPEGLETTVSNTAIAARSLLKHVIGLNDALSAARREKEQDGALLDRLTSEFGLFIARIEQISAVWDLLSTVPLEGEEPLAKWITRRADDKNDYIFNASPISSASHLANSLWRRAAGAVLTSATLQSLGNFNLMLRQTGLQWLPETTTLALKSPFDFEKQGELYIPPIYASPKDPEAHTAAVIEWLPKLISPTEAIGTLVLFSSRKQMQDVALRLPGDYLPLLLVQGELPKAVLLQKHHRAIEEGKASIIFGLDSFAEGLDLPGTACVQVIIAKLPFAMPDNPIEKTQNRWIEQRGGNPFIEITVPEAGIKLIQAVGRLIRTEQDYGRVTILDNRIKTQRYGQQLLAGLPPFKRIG", "test": "forked DNA (T1+B1) unwinding, native PAGE", "format": "biochemical", "settings": "2 mM nucleotide, 2 mM Mg2+, 400 nM DinG, pH 7.5, 37 °C; read-out is nucleotide-dependent unwinding"}, "[2]": {"biological_target": "DinGNmK72A (Neisseria meningitidis MC58, UniProt Q9K181 1-716, K72A)", "test": "EMSA; protein titration; mutant retained DNA binding affinity; EMSA: 40 mM Tris-HCl pH 8, 2.5 mM EDTA, 2 mM MgCl2, 100 mg/ml BSA (so in the source), 6% glycerol, 2 mM DTT, 0.1 nM 32P-DNA, 15 min on ice; 5% native PAGE in ice bath", "settings": "protein: recombinant; tags: C-terminal 6xHis; label: 32P; single strand"}, "[3]": {"biological_target": "T2, Neisseria meningitidis helicase DinG (DinGNm) (N. meningitidis MC58, UniProt Q9K181 1-716)", "T2 construct": "DinG helicase of Neisseria meningitidis strain MC58, gene amplified from genomic DNA and cloned into pET-28b(+) (plasmid pSB13); also called Nm DinG; DNA damage-inducible protein DinG; source: E. coli NiCo21 (DE3) with pLysS, purified (Ni-NTA, Resource Q ion exchange)", "T2 sequence (looked up)": "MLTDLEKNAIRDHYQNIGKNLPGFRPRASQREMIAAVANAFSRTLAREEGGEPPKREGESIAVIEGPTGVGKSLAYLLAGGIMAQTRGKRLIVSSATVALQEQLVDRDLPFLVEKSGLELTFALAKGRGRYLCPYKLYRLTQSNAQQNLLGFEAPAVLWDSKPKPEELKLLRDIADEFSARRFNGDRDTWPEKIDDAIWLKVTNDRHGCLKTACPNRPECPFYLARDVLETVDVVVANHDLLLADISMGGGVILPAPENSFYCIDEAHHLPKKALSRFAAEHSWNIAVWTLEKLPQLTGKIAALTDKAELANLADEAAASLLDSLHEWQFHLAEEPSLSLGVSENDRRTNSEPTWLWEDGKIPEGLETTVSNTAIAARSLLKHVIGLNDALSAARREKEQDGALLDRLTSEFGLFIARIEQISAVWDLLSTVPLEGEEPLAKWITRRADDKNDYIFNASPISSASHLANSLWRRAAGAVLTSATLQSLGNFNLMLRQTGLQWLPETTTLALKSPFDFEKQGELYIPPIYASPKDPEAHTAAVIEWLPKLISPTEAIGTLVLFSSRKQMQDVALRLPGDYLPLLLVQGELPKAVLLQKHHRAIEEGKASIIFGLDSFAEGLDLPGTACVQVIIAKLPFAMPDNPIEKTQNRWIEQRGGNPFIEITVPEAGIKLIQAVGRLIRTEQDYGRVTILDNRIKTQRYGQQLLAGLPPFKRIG", "test": "MST; SSB proteins labelled (RED-NHS, 20.7 nM), DinG proteins titrated as ligands; 20 mM HEPES pH 7.5, 300 mM NaCl, 0.05% Tween 20, 0.1% Pluronic F-127, 0.1% PEG 8000, 2 mM DTT; 22°C, 20% MST power", "settings": "both partners purified"}, "[4]": {"biological_target": "SSBNmΔ8C (N. meningitidis MC58)", "test": "MST; SSB proteins labelled (RED-NHS, 20.7 nM), DinG proteins titrated as ligands; 20 mM HEPES pH 7.5, 300 mM NaCl, 0.05% Tween 20, 0.1% Pluronic F-127, 0.1% PEG 8000, 2 mM DTT; 22°C, 20% MST power"}}, "data": [{"molecule": "Nc1ncnc2c1ncn2[C@H]1C[C@H](O)[C@@H](COP(=O)(O)OP(=O)(O)OP(=O)(O)O)O1", "note": "[dATP]", "values": [{"measurement": "forked DNA (T1+B1) unwinding, native PAGE", "setting": "[1]", "value": "unwinding activity of DinGNm was observed only in the presence of ATP or dATP"}]}, {"molecule": "poly dT100 (ssDNA) DNA: TTTTTTTTTTTTTTTTTTTTTTTTTTTTTTTTTTTTTTTTTTTTTTTTTTTTTTTTTTTTTTTTTTTTTTTTTTTTTTTTTTTTTTTTTTTTTTTTTTTT", "values": [{"measurement": "binding result", "setting": "[2]", "value": "binds"}]}, {"molecule": "Neisseria meningitidis single-stranded DNA binding protein (SSBNm) (natural protein, N. meningitidis MC58, UniProt P66848 1-174, looked up, in the MST assay labelled with the Monolith NT Protein Labeling Kit RED-NHS, degree of labelling 0.7, SSB of Neisseria meningitidis, expression vector pEH1; Unlabelled in the ammonium sulphate co-precipitation) MSLNKVILIGRLGRDPEVRYMPNGEAVCNFSVATSETWNDRNGQRVERTEWHNITMYRKLAEIAGQYLKKGGLVYLEGRIQSRKYQGKDGIERTAYDIVANEMKMLGGRNENSGGAPYEEGYGQSQEAYQRPAQQSRQPASDAPSHPQEAPAAPRRQPVPAAAPVEDIDDDIPF", "values": [{"measurement": "Kd", "setting": "[3]", "value": "1360 ± 110", "unit": "nM"}]}, {"molecule": "Neisseria meningitidis helicase DinG (DinGNm) (enzyme) MLTDLEKNAIRDHYQNIGKNLPGFRPRASQREMIAAVANAFSRTLAREEGGEPPKREGESIAVIEGPTGVGKSLAYLLAGGIMAQTRGKRLIVSSATVALQEQLVDRDLPFLVEKSGLELTFALAKGRGRYLCPYKLYRLTQSNAQQNLLGFEAPAVLWDSKPKPEELKLLRDIADEFSARRFNGDRDTWPEKIDDAIWLKVTNDRHGCLKTACPNRPECPFYLARDVLETVDVVVANHDLLLADISMGGGVILPAPENSFYCIDEAHHLPKKALSRFAAEHSWNIAVWTLEKLPQLTGKIAALTDKAELANLADEAAASLLDSLHEWQFHLAEEPSLSLGVSENDRRTNSEPTWLWEDGKIPEGLETTVSNTAIAARSLLKHVIGLNDALSAARREKEQDGALLDRLTSEFGLFIARIEQISAVWDLLSTVPLEGEEPLAKWITRRADDKNDYIFNASPISSASHLANSLWRRAAGAVLTSATLQSLGNFNLMLRQTGLQWLPETTTLALKSPFDFEKQGELYIPPIYASPKDPEAHTAAVIEWLPKLISPTEAIGTLVLFSSRKQMQDVALRLPGDYLPLLLVQGELPKAVLLQKHHRAIEEGKASIIFGLDSFAEGLDLPGTACVQVIIAKLPFAMPDNPIEKTQNRWIEQRGGNPFIEITVPEAGIKLIQAVGRLIRTEQDYGRVTILDNRIKTQRYGQQLLAGLPPFKRIG", "values": [{"measurement": "Kd", "setting": "[4]", "value": 3.71, "unit": "µM"}]}]}
